Article PMC2988976

Target: Rev_(70-Dimer) (HIV) (UniProt P04618)
Assay: SEC-MALS

“Rev_(70-Dimer) (from UniProt P04618 1-70) (domain or fragment)” gave a stoichiometry N of 2.
